In the assay the target is SARS 2-Helix (single-chain fusion core of SARS-CoV spike protein: HR1, 22-amino acid linker, HR2) (SARS coronavirus GZ02). Briefly: crystal structure.

The values that follow come from article PMC8008698.

One may read the stoichiometry N as a count of units in the complex or per binding partner.

With “SARS 2-Helix (single-chain fusion core of SARS-CoV spike protein: HR1, 22-amino acid linker, HR2) (domain or fragment)”, the stoichiometry N was 3.
